This is an account of results in article doi:10.1101/284836.

Data set [1] concerns EcCRP-HIS (Escherichia coli). In words: EMSA. For orientation: A gel shift assay detects complexes by their altered migration in electrophoresis.
Data set [2] deals with HiCRP-HIS (Haemophilus influenzae). In words: EMSA.

Regarding pilA-N promoter (CRP-N), Fig. 3 bait, the figures for the binding signal in data set [1] and in data set [2] were 77 % shifted and 6 % shifted, respectively. In data set [1], pilA promoter (CRP-S), Fig. 3 bait displayed a binding signal of 30 % shifted.
